This note sets out measurements from patent US20150037328A1 (Pfizer, published 2015).

Experiment [1] concerns the target T1, human CXCR4 (chemokine (C-X-C motif) receptor 4) (human, UniProt P61073 1-352).
T1 construct: Endogenous on human tumour cell lines (Ramos, HPB-ALL, Raji, Jurkat, MM1.S, RPMI-8226, MOLP-8, MOLT-4) or transfected into CHO-K1 cells (DiscoveRx); also called CXCR4 receptor
As to the kind of experiment: flow cytometry on HPB-ALL cells, Fab at 0.25 µg/ml.

Experiment [2] has as its target T1, human CXCR4 (chemokine (C-X-C motif) …). As to the kind of experiment: flow cytometry on HPB-ALL cells, Fab at 0.25 µg/mL. How it is done:
Binding of CXCR4 Fabs to CXCR4-expressing cells were measured by flow cytometry on HPB-ALL (Human T cell leukemia) cells. 150,000 HPB-ALL cells were resuspended in 100 uL FACS buffer (1×PBS+0.5% BSA) on 96 well plates. […] After removing the primary antibodies the cells were washed twice with FACS buffer and then resuspended in FACS buffer and 2 uL (3 ug) of 2nd Ab (Alexa Fluor 647-conjugated goat anti-human IgG, F(ab′)2 specific, Jackson ImmunoResearch Laboratories, West Grove Pa.) was then added to each well. The plates were incubated at 4 degree for another 30 min. Fluorescence signals were acquired by cell analyzer LSRII (BD Biosciences, San Jose Calif.).

The target is the same in experiment [3]. As to the kind of experiment: flow cytometry on HPB-ALL cells, Fab at 2.5 µg/ml.
Experiment [4] addresses T2, human CXCR4-enriched lipoparticles (LEV101, Integral Molecular) (human, UniProt P61073 1-352).
T2 construct: Bought reagent; CXCR4 held in lipoparticles captured by biotinylated WGA on an SA chip; also called Lipoparticles containing CXCR4 proteins
As to the kind of experiment: biosensor kinetic titration, Fab over captured human CXCR4 lipoparticles. How it is done: The binding affinity of each Fab was determined using human CXCR4-enriched lipoparticles (LEV101, Integral Molecular, Philadelphia Pa.). Biotinylated WGA (Sigma Aldrich, St. Louis Mo.)) can be coated on the SA chip to facilitate capturing lipoparticles containing CXCR4 proteins. […] J. Mol. Recognit.

T2 sequence (P61073 whole entry): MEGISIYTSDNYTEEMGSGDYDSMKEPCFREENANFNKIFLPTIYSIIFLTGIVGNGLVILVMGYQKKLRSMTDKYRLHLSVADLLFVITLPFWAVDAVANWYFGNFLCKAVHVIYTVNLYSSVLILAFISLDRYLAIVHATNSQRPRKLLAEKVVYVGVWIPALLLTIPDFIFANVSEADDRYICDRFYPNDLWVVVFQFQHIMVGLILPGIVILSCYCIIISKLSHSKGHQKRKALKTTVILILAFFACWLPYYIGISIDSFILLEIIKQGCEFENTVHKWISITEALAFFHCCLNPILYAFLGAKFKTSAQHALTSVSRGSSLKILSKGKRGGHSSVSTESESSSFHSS
T1 sequence (P61073 whole entry): as above

B1: h3G10.A57 VH / h3G10.2.72 VL Fab (Fab, V domains shown)
VH: EVQLVESGGGLVQPGGSLRLSCAASGFTFSDYYMSWVRQAPGKGLEWVGFIRHKANFYTTEYSTSVKGRFTISRDDSKNSLYLQMNSLKTEDTAVYYCARDLPGFAYWGQGTLVTVSS
VL: DIVMTQSPDSLAVSLGERATINCKSSQSLFNSRTRKNYLAWYQQKPGQPPKLLIYWASARESGVPDRFSGSGSGTDFTLTISSLQAEDVAVYYCKQSFRLRTFGGGTKVEIK
notes: Tested as Fab
For B1, the MFI in experiment [1] stood at 1220. This molecule had an MFI in experiment [2] of 2770. The same molecule came in with an MFI in experiment [3] of 4330. Further, in experiment [4], the Kd amounted to 1.12 nM, the koff is 0.0013 s⁻¹, the kon came to 1.1e+06 M⁻¹ s⁻¹ and the “t½” value turned out to be 9 min.

B2: h3G10.A57 VH / h3G10.A58A VL Fab (Fab, V domains shown)
VH: EVQLVESGGGLVQPGGSLRLSCAASGFTFSDYYMSWVRQAPGKGLEWVGFIRHKANFYTTEYSTSVKGRFTISRDDSKNSLYLQMNSLKTEDTAVYYCARDLPGFAYWGQGTLVTVSS
VL: DIVMTQSPDSLAVSLGERATINCKSSQSLFNSHTRKNYLAWYQQKPGQPPKLLIYWASARGSGVPDRFSGSGSGTDFTLTISSLQAEDVAVYYCKQSFRLRTFGGGTKVEIK
notes: Tested as Fab
For the molecule B2, the MFI in experiment [1] was 3610. The MFI in experiment [2] is 3890. The MFI in experiment [3] was 7400. Moreover, in experiment [4], binding was characterised by a dissociation constant (Kd) of 0.39 nM, the koff worked out at 0.00063 s⁻¹, the kon came to 1.6e+06 M⁻¹ s⁻¹ and the “t½” value was determined as 18.2 min.

B3: h3G10 VH / h3G10 VL Fab (Fab, V domains shown)
VH: EVQLVESGGGLVQPGGSLRLSCAASGFTFSDYYMSWVRQAPGKGLEWVGFIRHKANGYTTEYSTSVKGRFTISRDDSKNSLYLQMNSLKTEDTAVYYCARDLPGFAYWGQGTLVTVSS
VL: DIVMTQSPDSLAVSLGERATINCKSSQSLFNSRTRKNYLAWYQQKPGQPPKLLIYWASARESGVPDRFSGSGSGTDFTLTISSLQAEDVAVYYCKQSFNLRTFGGGTKVEIK
notes: Tested as Fab; also called h3G10 Fab
As for B3, the MFI in experiment [1] was found to be 563. In experiment [2], this molecule showed an MFI of 1360. In addition, the MFI in experiment [3] is 2460. In addition, in experiment [4], the affinity, expressed as Kd, was 1.9 nM; the koff turned out to be 0.003 s⁻¹; the kon was found to be 1.6e+06 M⁻¹ s⁻¹; the “t½” value stood at 3.9 min.

B4: h3G10.2.37 VH / h3G10.2.72 VL Fab (Fab, V domains shown)
VH: EVQLVESGGGLVQPGGSLRLSCAASGFTFSDYYMSWVRQAPGKGLEWVGFIRHKANFYTREYSTSVKGRFTISRDDSKNSLYLQMNSLKTEDTAVYYCARDLPGFAYWGQGTLVTVSS
VL: DIVMTQSPDSLAVSLGERATINCKSSQSLFNSRTRKNYLAWYQQKPGQPPKLLIYWASARESGVPDRFSGSGSGTDFTLTISSLQAEDVAVYYCKQSFRLRTFGGGTKVEIK
notes: Tested as Fab
On to B4, for which, in experiment [1], the MFI worked out at 2920. This molecule returned an MFI in experiment [2] of 2890. The molecule also yielded an MFI in experiment [3] of 6240. Also, in experiment [4], binding was put at a Kd of 0.35 nM, the koff was 0.0008 s⁻¹, the kon was 2.3e+06 M⁻¹ s⁻¹ and the “t½” value was determined as 14.4 min.

B5: h3G10.1.91 VH / h3G10.2.72 VL Fab (Fab, V domains shown)
VH: EVQLVESGGGLVQPGGSLRLSCAASGFTFSDYYMSWVRQAPGKGLEWVGFIRHKANFETTEYSTSVKGRFTISRDDSKNSLYLQMNSLKTEDTAVYYCARDLPGFAYWGQGTLVTVSS
VL: DIVMTQSPDSLAVSLGERATINCKSSQSLFNSRTRKNYLAWYQQKPGQPPKLLIYWASARESGVPDRFSGSGSGTDFTLTISSLQAEDVAVYYCKQSFRLRTFGGGTKVEIK
notes: Tested as Fab
Molecule B5 registered an MFI in experiment [1] of 2670. Moreover, in experiment [2], the MFI was found to be 2350. In addition, in experiment [3], the MFI worked out at 7020. In experiment [4], the affinity, expressed as Kd, was 0.33 nM; the koff is 0.00049 s⁻¹; the kon was determined as 1.5e+06 M⁻¹ s⁻¹; the “t½” value came out at 23.5 min.
